Numbering of substitutions follows the chain as printed.
T1: human CXCR3 (human, UniProt P49682 1-368)
T1 construct: whole, on cells; R1610 cells
T1 sequence (looked up): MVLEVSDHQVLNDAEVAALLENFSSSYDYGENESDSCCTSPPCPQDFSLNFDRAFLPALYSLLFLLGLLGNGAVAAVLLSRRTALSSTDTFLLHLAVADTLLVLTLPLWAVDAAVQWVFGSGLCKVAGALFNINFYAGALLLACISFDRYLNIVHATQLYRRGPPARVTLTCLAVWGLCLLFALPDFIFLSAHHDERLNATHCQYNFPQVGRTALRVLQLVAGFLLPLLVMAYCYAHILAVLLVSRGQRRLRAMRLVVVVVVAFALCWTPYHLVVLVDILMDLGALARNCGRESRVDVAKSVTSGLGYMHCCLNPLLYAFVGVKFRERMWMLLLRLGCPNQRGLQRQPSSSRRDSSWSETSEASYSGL

T2: human CCR10 (human, UniProt P46092 1-362)
T2 construct: whole, on cells; CHO cells
T2 sequence (looked up): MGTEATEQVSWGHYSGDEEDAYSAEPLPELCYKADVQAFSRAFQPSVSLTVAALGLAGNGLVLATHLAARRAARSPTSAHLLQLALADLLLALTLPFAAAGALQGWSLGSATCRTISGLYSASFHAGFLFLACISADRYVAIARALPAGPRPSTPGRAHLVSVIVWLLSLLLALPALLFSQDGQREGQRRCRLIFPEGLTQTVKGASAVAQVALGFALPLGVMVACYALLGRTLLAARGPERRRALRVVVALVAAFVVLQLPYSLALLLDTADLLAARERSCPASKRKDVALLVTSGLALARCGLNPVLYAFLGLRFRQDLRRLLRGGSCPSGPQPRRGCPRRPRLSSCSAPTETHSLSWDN

T3: human CXCR2 (human, UniProt P25025 1-360)
T3 construct: whole, on cells; Cf2th cells
T3 sequence (looked up): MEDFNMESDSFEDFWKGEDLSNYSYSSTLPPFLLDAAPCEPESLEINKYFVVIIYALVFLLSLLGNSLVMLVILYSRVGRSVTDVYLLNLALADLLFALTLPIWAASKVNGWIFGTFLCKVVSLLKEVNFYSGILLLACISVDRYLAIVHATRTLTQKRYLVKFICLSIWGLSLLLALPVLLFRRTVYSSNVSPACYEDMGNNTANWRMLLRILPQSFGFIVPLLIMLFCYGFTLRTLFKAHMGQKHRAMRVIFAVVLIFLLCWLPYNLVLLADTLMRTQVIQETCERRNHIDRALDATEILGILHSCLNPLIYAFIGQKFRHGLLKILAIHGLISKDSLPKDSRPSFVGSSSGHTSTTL

T4: human CCR3 (human, UniProt P51677 1-355)
T4 construct: whole, on cells; CHO cells
T4 sequence (looked up): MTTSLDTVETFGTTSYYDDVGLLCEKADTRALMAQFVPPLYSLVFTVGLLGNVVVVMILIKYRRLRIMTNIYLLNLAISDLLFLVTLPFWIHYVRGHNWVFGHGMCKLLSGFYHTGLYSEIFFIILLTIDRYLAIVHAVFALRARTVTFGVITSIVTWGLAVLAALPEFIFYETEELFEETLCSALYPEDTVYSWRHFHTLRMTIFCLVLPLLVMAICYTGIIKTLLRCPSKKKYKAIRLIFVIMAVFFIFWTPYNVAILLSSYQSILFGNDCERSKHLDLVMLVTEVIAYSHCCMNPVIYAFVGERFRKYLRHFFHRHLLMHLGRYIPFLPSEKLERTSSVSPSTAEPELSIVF

T5: cyno CXCR3 (cynomolgus monkey, UniProt A0A2K5UV19 1-368)
T5 construct: whole, on cells; CHO cells
T5 sequence: T1 sequence (looked up) with T83A

B1: MSM-R710 (fully human anti-human CCR7 antibody, IgG1) (antibody, V domains shown)
VH: EVQLLESGGGLVQPGGSLRLSCAASGFTFSNYTMHWVRQAPGKGLEWVSGIGPRSGRTYYADSVKGRFTISRDNSKNTLYLQMNSLRAEDTAVYYCARSYAYQYRGFDYWGQGTLVTVSS
VL: EIVLTQSPGTLSLSPGERATLSCRASQSVSSSYLAWYQQKPGQAPRLLIYGASSRATGIPDRFSGSGSGTDFTLTISRLEPEDFAVYYCQSSVTFGQGTKVEIKR
notes: IgG1 format
B2: MSM-R735 (fully human anti-human CCR7 antibody, IgG1) (antibody)
heavy: not shown
light: EIVLTQSPGTLSLSPGERATLSCRASQSVSSSYLAWYQQKPGQAPRLLIYGASSRATGIPDRFSGSGSGTDFTLTISRLEPEDFAVYYCQQGSPVTFGQGTKVEIKRTVAAPSVFIFPPSDEQLKSGTASVVCLLNNFYPREAKVQWKVDNALQSGNSQESVTEQDSKDSTYSLSSTLTLSKADYEKHKVYACEVTHQGLSSPVTKSFNRGEC
notes: IgG1 format; also called R735 Human IgG1

Columns and labels:
[1] = target: T6, human CXCR4 (human, UniProt P61073 1-352); experiment: FACS, Cf2th-human CXCR4 cells
T6 construct: whole, on cells; Cf2th cells
T6 sequence (P61073 whole entry): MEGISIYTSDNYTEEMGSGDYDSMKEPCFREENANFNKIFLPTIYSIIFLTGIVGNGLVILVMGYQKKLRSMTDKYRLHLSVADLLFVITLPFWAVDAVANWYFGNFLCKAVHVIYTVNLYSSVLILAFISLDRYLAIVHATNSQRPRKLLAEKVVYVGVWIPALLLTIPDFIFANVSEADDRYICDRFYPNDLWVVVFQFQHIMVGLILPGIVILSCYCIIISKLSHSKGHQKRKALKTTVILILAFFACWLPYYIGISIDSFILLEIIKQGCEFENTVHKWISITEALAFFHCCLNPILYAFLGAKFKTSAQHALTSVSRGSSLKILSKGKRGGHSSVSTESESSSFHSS
Description: (§1) In more details, the cell staining procedure was: […] cell suspension in 10 μl FACS buffer (1×PBS, 2.0% FBS, 0.2% sodium azide) was mixed with 10 μl of 200 nM the corresponding anti-CCR7 MAB and incubated on ice for 30 min. Washing step—after the incubation 150 μl of FACS buffer was added to the cell sample, the samples were mixed gently by up-down pipetting the cell suspension. Then the samples were centrifuged at 1100 rpm for 5 minutes, and supernatants were removed. Washing step was repeated ones. Then 10 μl of anti-human PE-(Fab)2 form Jackson Immuno Research Lab. #709-116-098 diluted 40 times in FACS buffer were added to the cells and the cells were re-suspended by up-down pipetting. After 20 min. incubation on ice in dark the washing step was repeated twice. The washed cells were mixed with 100 μl of FIX buffer (0.5% Paraformaldehyde solution in PBS). Fixed samples were stored in dark on ice and analyzed by FACS on Guava PCA-96 flow cytometer. The fluorescent signals collected from individual cells were obtained using fluorescence Activated Cell Sorter (FACS).

[2] = target: T7, human CCR5 (human, UniProt P51681 1-352); experiment: FACS, CHO-human CCR5 cells
T7 construct: whole, on cells; CHO cells
T7 sequence (P51681 whole entry): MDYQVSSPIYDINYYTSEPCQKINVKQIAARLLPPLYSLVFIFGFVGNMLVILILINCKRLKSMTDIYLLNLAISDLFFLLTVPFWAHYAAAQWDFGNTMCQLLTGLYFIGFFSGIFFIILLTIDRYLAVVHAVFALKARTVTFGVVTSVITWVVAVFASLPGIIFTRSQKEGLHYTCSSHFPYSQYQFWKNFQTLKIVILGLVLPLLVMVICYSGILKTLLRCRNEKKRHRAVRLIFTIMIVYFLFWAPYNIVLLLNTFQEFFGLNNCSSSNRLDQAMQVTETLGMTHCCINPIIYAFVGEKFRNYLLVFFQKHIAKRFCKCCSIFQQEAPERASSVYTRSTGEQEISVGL
Description: as §1

[3] = target: T8, human CXCR6 (human, UniProt O00574 1-342); experiment: FACS, CHO-human CXCR6 cells
T8 construct: whole, on cells; CHO cells
T8 sequence (O00574 whole entry): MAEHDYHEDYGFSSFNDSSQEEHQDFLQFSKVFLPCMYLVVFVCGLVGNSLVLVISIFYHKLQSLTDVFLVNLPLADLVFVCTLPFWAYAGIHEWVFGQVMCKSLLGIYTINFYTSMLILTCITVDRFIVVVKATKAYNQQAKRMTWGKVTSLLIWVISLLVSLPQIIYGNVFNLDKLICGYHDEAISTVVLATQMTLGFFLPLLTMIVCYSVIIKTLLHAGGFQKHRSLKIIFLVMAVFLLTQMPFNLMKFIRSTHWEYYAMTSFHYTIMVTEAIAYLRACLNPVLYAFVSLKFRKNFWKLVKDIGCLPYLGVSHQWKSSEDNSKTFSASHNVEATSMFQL

[4] = target: T9, human CXCR7 (human, UniProt P25106 1-362); experiment: FACS, CHO-human CXCR7 cells
T9 construct: whole, on cells; CHO cells
T9 sequence (P25106 whole entry): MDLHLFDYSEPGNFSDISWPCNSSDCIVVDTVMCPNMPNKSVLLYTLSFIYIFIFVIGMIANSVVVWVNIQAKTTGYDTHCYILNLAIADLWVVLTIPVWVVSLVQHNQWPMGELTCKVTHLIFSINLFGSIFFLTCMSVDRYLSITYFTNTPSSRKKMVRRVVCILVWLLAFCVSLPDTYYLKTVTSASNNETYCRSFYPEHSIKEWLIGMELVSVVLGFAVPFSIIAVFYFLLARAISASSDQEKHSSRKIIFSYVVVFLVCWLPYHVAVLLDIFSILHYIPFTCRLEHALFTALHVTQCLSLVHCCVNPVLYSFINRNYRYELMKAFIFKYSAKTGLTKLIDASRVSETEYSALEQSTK

[5] = target: T1, human CXCR3; experiment: FACS, R1610-human CXCR3 cells
Description: as §1

[6] = target: T2, human CCR10; experiment: FACS, CHO-human CCR10 cells
[7] = target: T3, human CXCR2; experiment: FACS, Cf2th-human CXCR2 cells
Description: as §1

[8] = target: T4, human CCR3; experiment: FACS, CHO-human CCR3 cells
Description: as §1

[9] = target: T5, cyno CXCR3; experiment: FACS, CHO-cyno CXCR3 cells
Description: as §1

Binder	binding result [1]	binding result [2]	binding result [3]	binding result [4]	binding result [5]	binding result [6]	binding result [7]	binding result [8]	binding result [9]
B1	no binding (tested: 200 nM MAB mixed 1:1 with cells)	no binding (tested: 200 nM MAB mixed 1:1 with cells)	no binding (tested: 200 nM MAB mixed 1:1 with cells)	no binding (tested: 200 nM MAB mixed 1:1 with cells)	no binding (tested: 200 nM MAB mixed 1:1 with cells)	no binding (tested: 200 nM MAB mixed 1:1 with cells)	no binding (tested: 200 nM MAB mixed 1:1 with cells)	no binding (tested: 200 nM MAB mixed 1:1 with cells)	no binding (tested: 200 nM MAB mixed 1:1 with cells)
B2	no binding (tested: 200 nM MAB mixed 1:1 with cells)	no binding (tested: 200 nM MAB mixed 1:1 with cells)	no binding (tested: 200 nM MAB mixed 1:1 with cells)	no binding (tested: 200 nM MAB mixed 1:1 with cells)	no binding (tested: 200 nM MAB mixed 1:1 with cells)	no binding (tested: 200 nM MAB mixed 1:1 with cells)	no binding (tested: 200 nM MAB mixed 1:1 with cells)	no binding (tested: 200 nM MAB mixed 1:1 with cells)	no binding (tested: 200 nM MAB mixed 1:1 with cells)

From patent US20150344580A1 (MSM PROTEIN TECHNOLOGIES, published 2015)
